# According to patent US20130209454A1:
# Assays:
# Assay in all cases: cell-based or functional assay
# [1] = molecular target: HIV-1 Env of strain WITO4160.33 (HIV-1)
# [2] = molecular target: HIV-1 Env of strain 62357_14_D3_4589 (HIV-1)
# [3] = molecular target: Env of HIV-1 strain T278-50 (HIV-1)
# [4] = molecular target: Env of HIV-1 strain RHPA4259.7 (HIV-1)
# [5] = molecular target: Env of HIV-1 strain CAAN5342.A2 (HIV-1)
# [6] = molecular target: HIV-1 Env of strain 3016.v5.c45 (HIV-1)
# [7] = molecular target: HIV-1 Env of strain 246F C1G (HIV-1)
# [8] = molecular target: Env of HIV-1 strain 1056_10_TA11_1826 (HIV-1)
# [9] = molecular target: Env of HIV-1 strain AC10.0.29 (HIV-1)
# [10] = molecular target: HIV-1 Env of strain BJOX015000.11.5 (HIV-1)
# [11] = molecular target: Env of HIV-1 strain HIV-001428-2.42 (HIV-1)
# [12] = molecular target: Env of HIV-1 strain ZM233M.PB6 (HIV-1)
# [13] = molecular target: HIV-1 Env of strain 1056_10_TA11_1826 (HIV-1)
# [14] = molecular target: Env of HIV-1 strain 3415.v1.c1 (HIV-1)
# [15] = molecular target: HIV-1 Env of strain 231965.c01 (HIV-1)
# [16] = molecular target: Env of HIV-1 strain BF1266.431a (HIV-1)
# [17] = molecular target: HIV-1 Env of strain AC10.0.29 (HIV-1)
# [18] = molecular target: HIV-1 Env of strain X2088_c9 (HIV-1)
# [19] = molecular target: HIV-1 Env of strain CNE52 (HIV-1)
# [20] = molecular target: HIV-1 Env of strain Du172.17 (HIV-1)
# [21] = molecular target: HIV-1 Env of strain Q842.d12 (HIV-1)
# [22] = molecular target: Env of HIV-1 strain 6540.v4.c1 (HIV-1)
# [23] = molecular target: Env of HIV-1 strain 6041.v3.c23 (HIV-1)
# [24] = molecular target: HIV-1 Env of strain 1012_11_TC21_3257 (HIV-1)
# [25] = molecular target: HIV-1 Env of strain CAAN5342.A2 (HIV-1)
# [26] = molecular target: Env of HIV-1 strain 211-9 (HIV-1)
# [27] = molecular target: Env of HIV-1 strain ZM247v1(Rev-) (HIV-1)
# [28] = molecular target: Env of HIV-1 strain WITO4160.33 (HIV-1)
# [29] = molecular target: HIV-1 Env of strain CNE58 (HIV-1)
# [30] = molecular target: Env of HIV-1 strain CNE30 (HIV-1)
# [31] = molecular target: Env of HIV-1 strain T255-34 (HIV-1)
# [32] = molecular target: Env of HIV-1 strain Ce0393_C3 (HIV-1)
# [33] = molecular target: Env of HIV-1 strain T250-4 (HIV-1)
# [34] = molecular target: HIV-1 Env of strain C1080.c03 (HIV-1)
# [35] = molecular target: HIV-1 Env of strain C4118.c09 (HIV-1)
# [36] = molecular target: Env of HIV-1 strain SC05_8C11_2344 (HIV-1)
# [37] = molecular target: Env of HIV-1 strain ZM249M.PL1 (HIV-1)
# [38] = molecular target: Env of HIV-1 strain CNE17 (HIV-1)
# [39] = molecular target: HIV-1 Env of strain R2184.c04 (HIV-1)
# [40] = molecular target: HIV-1 Env of strain 6952.v1.c20 (HIV-1)
# [41] = molecular target: Env of HIV-1 strain Q23.17 (HIV-1)
# [42] = molecular target: Env of HIV-1 strain WEAU_d15_410_787 (HIV-1)
# [43] = molecular target: Env of HIV-1 strain Du156.12 (HIV-1)
# [44] = molecular target: HIV-1 Env of strain 3365.v2.c2 (HIV-1)
# [45] = molecular target: HIV-1 Env of strain PVO.4 (HIV-1)
# [46] = molecular target: Env of HIV-1 strain MS208.A1 (HIV-1)
# [47] = molecular target: HIV-1 Env of strain ZM53M.PB12 (HIV-1)
# [48] = molecular target: HIV-1 Env of strain P0402_c2_11 (HIV-1)
# [49] = molecular target: HIV-1 Env of strain 89-F1_2_25 (HIV-1)
# [50] = molecular target: HIV-1 Env of strain CNE53 (HIV-1)
# [51] = molecular target: HIV-1 Env of strain ZM135M.PL10a (HIV-1)
# Chain of NIH45-46 (antibody) (VH): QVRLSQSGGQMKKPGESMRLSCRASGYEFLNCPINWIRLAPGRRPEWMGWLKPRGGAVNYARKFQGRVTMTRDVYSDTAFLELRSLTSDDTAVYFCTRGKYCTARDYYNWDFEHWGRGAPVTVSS
# Chain of NIH45-46 (antibody) (V domain): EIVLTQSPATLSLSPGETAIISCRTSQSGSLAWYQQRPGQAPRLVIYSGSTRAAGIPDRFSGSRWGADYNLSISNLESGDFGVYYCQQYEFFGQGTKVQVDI
substance,measurement,setting,value
NIH45-46 (antibody),"IC50, pseudovirus neutralization",[1],0.06 µg/mL
same,"IC50, pseudovirus neutralization",[2],0.06 µg/mL
same,IC80,[3],> 50 µg/mL
same,IC80,[4],0.047 µg/mL
same,IC80,[5],0.4 µg/mL
same,"IC50, pseudovirus neutralization",[6],> 50 µg/mL
same,"IC50, pseudovirus neutralization",[7],> 50 µg/mL
same,IC80,[8],0.447 µg/mL
same,IC80,[9],1.93 µg/mL
same,"IC50, pseudovirus neutralization",[10],0.06 µg/mL
same,IC80,[11],0.01 µg/mL
same,IC80,[12],14.2 µg/mL
same,"IC50, pseudovirus neutralization",[13],0.094 µg/mL
same,IC80,[14],0.086 µg/mL
same,"IC50, pseudovirus neutralization",[15],0.051 µg/mL
same,IC80,[16],0.03 µg/mL
same,"IC50, pseudovirus neutralization",[17],0.56 µg/mL
same,"IC50, pseudovirus neutralization",[18],> 50 µg/mL
same,"IC50, pseudovirus neutralization",[19],0.03 µg/mL
same,"IC50, pseudovirus neutralization",[20],> 50 µg/mL
same,"IC50, pseudovirus neutralization",[21],0.031 µg/mL
same,IC80,[22],> 50 µg/mL
same,IC80,[23],0.04 µg/mL
same,"IC50, pseudovirus neutralization",[24],0.01 µg/mL
same,"IC50, pseudovirus neutralization",[25],0.15 µg/mL
same,IC80,[26],> 50 µg/mL
same,IC80,[27],24.5 µg/mL
same,IC80,[28],0.26 µg/mL
same,"IC50, pseudovirus neutralization",[29],0.43 µg/mL
same,IC80,[30],1.07 µg/mL
same,IC80,[31],3.44 µg/mL
same,IC80,[32],0.936 µg/mL
same,IC80,[33],> 50 µg/mL
same,"IC50, pseudovirus neutralization",[34],2.48 µg/mL
same,"IC50, pseudovirus neutralization",[35],0.14 µg/mL
same,IC80,[36],0.38 µg/mL
same,IC80,[37],0.053 µg/mL
same,IC80,[38],0.734 µg/mL
same,"IC50, pseudovirus neutralization",[39],0.034 µg/mL
same,"IC50, pseudovirus neutralization",[40],0.02 µg/mL
same,IC80,[41],0.5 µg/mL
same,IC80,[42],0.015 µg/mL
same,IC80,[43],0.054 µg/mL
same,"IC50, pseudovirus neutralization",[44],0.029 µg/mL
same,"IC50, pseudovirus neutralization",[45],0.12 µg/mL
same,IC80,[46],0.6 µg/mL
same,"IC50, pseudovirus neutralization",[47],0.175 µg/mL
same,"IC50, pseudovirus neutralization",[48],0.073 µg/mL
same,"IC50, pseudovirus neutralization",[49],> 50 µg/mL
same,"IC50, pseudovirus neutralization",[50],0.008 µg/mL
same,"IC50, pseudovirus neutralization",[51],0.59 µg/mL
